Results on 9 molecules are retold here after US20180016324A1 (Regeneron, published 2018).

Residue numbers refer to the chain shown, from its start.

Assay [1] has as its target T1, ZIKV (prM80E) with a C-terminal myc-myc-hexahistidine tag (Zika virus, UniProt A0A024B7W1 104-694).
T1 construct: also called ZIKV (prM80E)-mmH; ZIKV-mmH
The experiment in a line: SPR, mAb captured, 37C, pH 5.5 chase.

Assay [2] deals with ZIKV envelope glycoprotein (E) of strain FLR (Colombia 2015) (Zika virus). The experiment in a line: cell-based or functional assay.
In assay [3] the target is ZIKV envelope glycoprotein (E) of strain MR766 (Uganda 1947) (Zika virus, UniProt Q32ZE1 291-790). Kind of assay: cell-based or functional assay.
Assay [4] deals with ZIKV envelope glycoprotein (E) of strain PRVABC59 (Puerto Rico 2015) (Zika virus). Kind of assay: cell-based or functional assay.
For assay [5], the target named is T1, ZIKV (prM80E) with a C-terminal …. Kind of assay: SPR, mAb captured, 37C, pH 5.0 chase. On the technique in general: Surface plasmon resonance follows binding to a sensor surface in real time, without labels.
Assay [6] deals with T2, ZIKV prM/E polyprotein on virus-like particles (VLPs) from HEK293T/17 cells (Zika virus, UniProt A0A024B7W1 123-795).
T2 construct: also called ZIKV prM/E VLPs; Zika prM/E VLPs
The experiment in a line: MSD ECL, VLPs on plate.

Assay [7] addresses T1, ZIKV (prM80E) with a C-terminal …. Kind of assay: SPR, mAb captured, 37C.
For assay [8] the target is unchanged. The experiment in a line: SPR, mAb captured, 37C. The source holds these as a separate data set.
The target is the same in assay [9]. Kind of assay: SPR, mAb captured, 37C. The source holds these as a separate data set.
Assay [10] has the same target. The experiment in a line: SPR, mAb captured, 37C, pH 7.4.
For assay [11] the target is unchanged. Kind of assay: SPR, mAb captured, 37C, pH 6.0 chase.
Assay [12] shares this target. Kind of assay: SPR, mAb captured, 25C.

B1: H4H25710N (antibody, V domains shown)
VH: EVQLLESGGGLVQPGGSLRLSCAASGFTVSNNYMSWVRQAPGKGLEWVSVIYSGGRTNYGDSVKGRFTISRDNSKNTLYLQMNSLRAEDTAVYYCARENYDFWSGDPYGWDVWGQGTTVTVSS
VL: DIQMTQSPSSLSASVGDRVTITCRASQDISNYLAWFQQKPGKAPKSLIYGASSLQRGVPSKFRGSGSGTDFTLTISSLQPEDFASYYCQQYNSYPYTFGQGTKLEIK
By koff is commonly meant the first-order rate constant of dissociation. High values mean a short-lived complex, low ones a long-lived complex. As a reminder, the t½ is the time in which the quantity being followed falls by half. For orientation: EC50 means the concentration needed to bring the measured effect to its halfway point. Read a high EC50 as weaker potency. For orientation: Kd means the free concentration of one partner at which half of the binding sites on the other are occupied at equilibrium, for simple one-to-one binding. In general, kon refers to the rate constant with which the complex forms. With B1, the koff in [1] turned out to be 0.181 s⁻¹; in assay [5], 0.339 s⁻¹; in assay [9], 0.0064 s⁻¹; in [10], 0.00541 s⁻¹; in assay [11], 0.13 s⁻¹; in assay [12], 0.00209 s⁻¹. Moreover, the t½ in [1] was 0.06 min; in [5] it was 0.03 min; in [9], 1.8 min; in assay [10], 2.14 min; in [11] it was 0.09 min; in [12], 5.5 min. For the same molecule, the “neutralization IC50, Vero cells” value in assay [2] was 1.06 nM; in assay [3], 0.0471 nM; in assay [4], 1.24 nM. Further, the EC50 in assay [6] stood at 0.542 nM. Besides, in assay [7], the “t½ pH 7.4/t½ pH 6.0” value was determined as 24. For the same molecule, in assay [8], the “t½ pH 7.4/t½ pH 5.0” value came out at 62.6. The “t½ pH 7.4/t½ pH 5.5” value in assay [8] was determined as 33.4. Moreover, the values for the Kd in assay [9] and in [12] were 12.4 nM and 6.99 nM, respectively. Moreover, the kon in assay [9] is 519000 M⁻¹ s⁻¹; in [12], 299000 M⁻¹ s⁻¹.

B2: H2aM25711N (antibody, V domains shown)
VH: B1 VH with L5V, N31S
VL: B1 VL with R63S, S85T
For B2, the EC50 in assay [6] was 0.468 nM.

B3: H2aM25709N (antibody, V domains shown)
VH: B1 VH with L5V, N31S
VL: B1 VL with R63S, S85T
B3 had a concentration for a half-maximal effect (EC50) in [6] of 0.362 nM.

B4: H4H25566P (antibody, V domains shown)
VH: QVQLQESGPGLVKPSQTLSLTCTVSGGSISSGGYYWSWIRQHPGKGLEWIGYIYYSGSTYYNPSLKSRITISIDTSKNQFSLKLTSVTAADTAVYYCARGQQLLSFDYWGQGTLVTVSS
VL: DIQMTQSPSSVSASVGDRVTITCRASQGISRWLAWYQLKPGKPPTPLIYAASSLQSGAPSRFSGRGSGTDFTLTISSLQPEDFATYYCQQANSFPYTFGQGTKLEIK
On to B4, for which the koff in assay [1] is 0.392 s⁻¹; in [5], 0.368 s⁻¹; in assay [9] it was 0.036 s⁻¹; in assay [10] it was 0.0542 s⁻¹; in assay [11], 0.299 s⁻¹; in assay [12] it was 0.0163 s⁻¹. The t½ was 0.03 min in assay [1]; 0.03 min in assay [5]; 0.3 min in assay [9]; 0.21 min in assay [10]; 0.04 min in assay [11]; 0.7 min in [12]. In [2], the “neutralization IC50, Vero cells” value came out at 1.55 nM. The molecule further displayed a concentration for a half-maximal effect (EC50) in assay [6] of 0.82 nM. Also, the “t½ pH 7.4/t½ pH 6.0” value in assay [7] is 5.5. For the same molecule, the “t½ pH 7.4/t½ pH 5.0” value in assay [8] came to 6.8. The “t½ pH 7.4/t½ pH 5.5” value in assay [8] came to 7.2. In addition, the Kd amounted to 52.5 nM in assay [9] and 27.7 nM in assay [12]. Further, the kon in assay [9] turned out to be 687000 M⁻¹ s⁻¹; in assay [12], 590000 M⁻¹ s⁻¹.

B5: H4H25587P (antibody, V domains shown)
VH: EVQLVESGGGLVQPGRSLTLSCAASGFTFDDYVMHWVRQAPGKGLEWVSGISWNSDTIDYADSVKGRFTISRDNAKNSLYLQMNSLRAEDTALYYCAKDRRSWYGGYFDYWGQGTLVTVSS
VL: DIQMTQSPSSLSASVGDRVTITCRASQGISSYLAWYQQKPGKVPKLLIYAASTLQSGVPSRFSGSGSGTDFSLTISSLQPEDVATYYCQKYNSAPLTFGGGTKVEIK
On to B5, for which the off-rate constant (koff) amounted to 0.0174 s⁻¹ in assay [1]; 0.0177 s⁻¹ in [5]; 0.0145 s⁻¹ in assay [9]; 0.018 s⁻¹ in assay [10]; 0.0151 s⁻¹ in assay [11]; 0.00422 s⁻¹ in [12]. In addition, the t½ in assay [1] came out at 0.66 min; in [5], 0.7 min; in assay [9], 0.8 min; in [10], 0.64 min; in assay [11], 0.77 min; in assay [12], 2.7 min. The “neutralization IC50, Vero cells” value in assay [2] came to 0.955 nM; in [3], 0.15 nM; in assay [4], 0.321 nM. For the same molecule, it took 0.145 nM to reach a half-maximal effect in [6] (EC50). Moreover, the “t½ pH 7.4/t½ pH 6.0” value in assay [7] stood at 0.8. Further, the “t½ pH 7.4/t½ pH 5.0” value in assay [8] amounted to 1. For the same molecule, the “t½ pH 7.4/t½ pH 5.5” value in assay [8] is 1. The values for the Kd in [9] and in assay [12] were 13.2 nM and 5.13 nM, respectively. The values for the kon in [9] and in [12] were 1.1e+06 M⁻¹ s⁻¹ and 822000 M⁻¹ s⁻¹, respectively.

B6: H4H25633P (antibody, V domains shown)
VH: EVQLVESGGGLVQPGRSLRLSCAASGFTFDDYAIHWVRQAPGKGLEWVSGISWNSGYLGYADSVKGRFTISRDNAKNSLYLQMNSLRAEDTAFYYCAKDVAWGSVRHVFEIWGQGTMVTVSS
VL: EIVLTQSPGTLSLSPGERATLSCRASQTITGNQLAWYQQKPGQAPRLLIYFTSSRATGIPDRFSGSGSGTDFSLTISRLEPEDFAVYFCQQFGYSPWTFGQGTKVEIK
Consider B6, for which, in assay [2], the “neutralization IC50, Vero cells” value was determined as 0.44 nM. The “neutralization IC50, Vero cells” value in assay [3] was found to be 0.102 nM. For the same molecule, the “neutralization IC50, Vero cells” value in assay [4] was 0.652 nM. The molecule also showed an EC50 in [6] of 0.4 nM. In assay [9], this molecule returned a Kd of 7.39 nM, a koff of 0.00501 s⁻¹, a kon of 678000 M⁻¹ s⁻¹ and a t½ of 2.3 min. In assay [12], this molecule had a Kd of 1.95 nM, a koff of 0.000802 s⁻¹, a kon of 411000 M⁻¹ s⁻¹ and a t½ of 14.4 min.

B7: H4H25708N (antibody, V domains shown)
VH: EVQLLESGGDLVQPGGSLRLSCAASGFTFSSYAMSWVRQAPGKGLEWVSAISVSGDSTYYADSVKGRFTISRDNSKNTLYLQMNSLRAEDTAVYYCAKDRGYTWNYYYYGMDVWGQGTTVTVSS
VL: not shown
Turning to B7, the koff in assay [1] amounted to 0.00157 s⁻¹; in assay [5], 0.00129 s⁻¹; in assay [9], 0.00232 s⁻¹; in assay [10], 0.0026 s⁻¹; in assay [11] it was 0.00144 s⁻¹; in assay [12], 0.000504 s⁻¹. The t½ was found to be 7.37 min in [1]; 8.9 min in assay [5]; 5 min in [9]; 4.45 min in assay [10]; 8.02 min in assay [11]; 22.9 min in [12]. For the same molecule, the “neutralization IC50, Vero cells” value in assay [3] amounted to 0.349 nM. Besides, the EC50 in assay [6] was determined as 133 nM. The “t½ pH 7.4/t½ pH 6.0” value in assay [7] came out at 0.6. Also, in assay [8], the “t½ pH 7.4/t½ pH 5.0” value worked out at 0.5. The “t½ pH 7.4/t½ pH 5.5” value in [8] came out at 0.6. In addition, the results for the dissociation constant Kd in assay [9] and in assay [12] were 2.97 nM and 1.21 nM, respectively. In addition, the kon amounted to 781000 M⁻¹ s⁻¹ in assay [9] and 417000 M⁻¹ s⁻¹ in assay [12].

B8: H4H25630P (antibody, V domains shown)
VH: QVQLVQSGAEVKRPGASVKVSCKASDYTFTDYGISWVRQAPGQGLEWMGWFNTYNGNTNYAQKFQGRITMTTDTSTSTAYMELRSLRSDDTAIYYCARDWGLHYFENWGQGTLVTVSS
VL: EIVLTQSPGTLSLSPGERATLSCRASQSVRNSYLAWYQQKPGQAPRLLIYGASSRDTGIPDRFSGSGSGTDFTLTISRLEPEDFAVYYCQQYGRSPWTFGQGTKVEIK
Regarding B8, the “neutralization IC50, Vero cells” value in assay [2] is 0.283 nM. The “neutralization IC50, Vero cells” value in [3] is 0.147 nM. For the same molecule, the “neutralization IC50, Vero cells” value in assay [4] turned out to be 0.539 nM. Besides, the EC50 in assay [6] was 0.217 nM. In [9], this molecule yielded a Kd of 1.16 nM, a koff of 0.00229 s⁻¹, an association rate constant (kon) of 1.98e+06 M⁻¹ s⁻¹ and a t½ of 5.1 min. Further, in [12], the Kd amounted to 0.21 nM, the koff worked out at 0.00035 s⁻¹, the kon amounted to 1.67e+06 M⁻¹ s⁻¹ and the t½ was 33 min.

B9: H4H25626P (antibody, V domains shown)
VH: QVQLVESGGGVVQPGRSLRLSCAASGFTFSSYGMHWVRQAPGKGLEWVALIWYDGSDKHYVDSMKGRFTISRDNSKNTLYLQMNSLRADDTAVYYCARQAYYFYYGMDVWGQGTTVTVSS
VL: not shown
Consider B9, for which the results for the “neutralization IC50, Vero cells” value in assay [2], in assay [3] and in assay [4] were 1.09 nM, 0.159 nM and 1.17 nM, respectively. The response in [6] was half-maximal at 1.59 nM (EC50). Further, the Kd is 6.18 nM in assay [9] and 6.17 nM in assay [12]. The koff in assay [9] is 0.00187 s⁻¹; in assay [12] it was 0.000905 s⁻¹. Moreover, the values for the kon in assay [9] and in [12] were 303000 M⁻¹ s⁻¹ and 147000 M⁻¹ s⁻¹, respectively. For the same molecule, the t½ in assay [9] is 6.2 min; in assay [12], 12.8 min.
